Experimental data as given in paper PMC5594927.

Assays:
[1] = target: T1, AtGPA1, Arabidopsis Gα subunit, His-tagged (Arabidopsis thaliana) (UniProt P18064)
T1 sequence: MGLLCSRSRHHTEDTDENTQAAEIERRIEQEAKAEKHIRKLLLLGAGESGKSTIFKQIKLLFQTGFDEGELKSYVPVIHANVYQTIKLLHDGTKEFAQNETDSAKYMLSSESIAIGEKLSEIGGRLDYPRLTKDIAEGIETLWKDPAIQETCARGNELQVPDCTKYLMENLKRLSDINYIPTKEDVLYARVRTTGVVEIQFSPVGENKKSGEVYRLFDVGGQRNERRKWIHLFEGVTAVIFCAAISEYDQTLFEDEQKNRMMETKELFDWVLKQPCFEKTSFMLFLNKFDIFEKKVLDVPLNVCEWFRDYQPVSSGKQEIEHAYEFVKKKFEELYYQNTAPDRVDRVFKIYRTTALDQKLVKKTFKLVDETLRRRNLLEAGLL

[2] = target: T1, AtGPA1, Arabidopsis Gα subunit, His-tagged (Arabidopsis thaliana); remark: listed apart in the source

rate constant of single turnover GTP hydrolysis by AtGPA1 with 30 nM RGS1box [1]: 0.18 min⁻¹
GAP activity as ΔK per molecule, single turnover GTPase assay (min^−1 pmol^−1) [2]: 0.0378
B1: C-terminal domain of AtRGS1 (residues 284–459), His-tagged (domain or fragment)
chain: KEEFRPVDPNEPLDKLLLNKRFRHSFMEFADSCYAGETLHFFEEVYEHGKIPEDDSIRRIYMARHIMEKFIVAGAEMELNLSHKTRQEILTTQDLTHTDLFKNALNEVMQLIKMNLVRDYWSSIYFIKFKEEESCHEAMHKEGYSFSSPRLSSVQGSDDPFYQEHMSKSSRCSSPG
